Experimental data: US20220048947A1 (NANOTAG BIOTECHNOLOGIES, published 2022)
Numbering of substitutions follows the chain as printed. Where no end group is shown, it is not given here.

T1: ALFA^ST peptide (Ac-PSRLEEELRRRLTEP-Amide)
T1 construct: also called free ALFA^ST peptide; ALFA peptide
T1 peptide: Ac-PSRLEEELRRRLTEP-NH2

T2: YfgM (non-tagged) (E. coli, UniProt P76576 1-206)
T2 construct: Control without tag; also called wild-type YfgM; untagged YfgM
T2 sequence: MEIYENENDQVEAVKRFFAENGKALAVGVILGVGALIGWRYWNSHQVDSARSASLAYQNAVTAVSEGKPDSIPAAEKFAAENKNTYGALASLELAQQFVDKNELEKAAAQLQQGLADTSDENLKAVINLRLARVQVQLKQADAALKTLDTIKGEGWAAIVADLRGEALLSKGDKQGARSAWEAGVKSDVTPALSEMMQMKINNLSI

T3: PpiD (E. coli, UniProt P0ADY1 1-623)
T3 sequence (looked up): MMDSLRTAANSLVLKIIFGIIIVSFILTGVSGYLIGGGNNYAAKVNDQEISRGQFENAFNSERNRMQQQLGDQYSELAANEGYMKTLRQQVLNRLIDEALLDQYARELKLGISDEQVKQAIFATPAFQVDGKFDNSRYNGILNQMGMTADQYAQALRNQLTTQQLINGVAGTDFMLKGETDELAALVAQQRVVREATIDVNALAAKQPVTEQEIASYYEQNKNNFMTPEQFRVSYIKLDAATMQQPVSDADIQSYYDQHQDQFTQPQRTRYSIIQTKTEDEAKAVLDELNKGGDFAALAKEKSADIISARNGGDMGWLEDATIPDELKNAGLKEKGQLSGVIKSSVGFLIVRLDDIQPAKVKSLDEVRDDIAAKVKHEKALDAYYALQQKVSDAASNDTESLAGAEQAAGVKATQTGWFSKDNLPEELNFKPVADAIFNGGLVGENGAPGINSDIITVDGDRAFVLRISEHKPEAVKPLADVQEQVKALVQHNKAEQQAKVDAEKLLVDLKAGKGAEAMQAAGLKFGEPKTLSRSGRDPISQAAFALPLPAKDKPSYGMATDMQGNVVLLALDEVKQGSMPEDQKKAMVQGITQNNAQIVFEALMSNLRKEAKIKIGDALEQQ

B1: gPSRLEEELRRRLTAas. (SEQ ID NO: 21) (peptide)
peptide: GPSRLEEELRRRLTAAS
notes: Tag variant tested inside a fusion protein, position C
B2: NbALFA^ST (NbALFA clone 1G5) (VHH)
VHH: EVQLQESGGGLVQPGGSLRLSCTASGVTISALNAMAMGWYRQAPGERRVMVAAVSERGNAMYRESVQGRFTVTRDFTNKMVSLQMDNLKPEDTAVYYCHVLEDRVDSFHDYWGQGTQVTVSS
notes: Alpaca single-domain antibody; also called ALFA Selector^ST (immobilised on agarose resin); FluoTag-X2 anti-ALFA (coupled to AbberiorStar635P or IRDye800CW)
B3: NbALFA^ST-mScarlet-I (VHH)
VHH: B2 VHH
notes: Intrabody fusion expressed in COS-7 cells; also called pNT1004
B4: NbALFA^PE (VHH)
VHH: B2 VHH with R47E, E56S
notes: Weaker mutant of NbALFA^ST made by rational mutagenesis from the crystal structure; used on agarose (ALFA Selector^PE) or in solution (MST); also called NbALFA^PE mutant; ALFA Selector^PE (immobilised on agarose resin)
B5: MSRLEEELRRRLTEp (SEQ ID NO: 29) (peptide)
peptide: MSRLEEELRRRLTEP
notes: Tag variant tested inside a fusion protein, position N
B6: pSRLEEELRRRLTEp (SEQ ID NO: 6) (peptide)
peptide: PSRLEEELRRRLTEP
modifications: not fully specified (residues 1, 15); printed as pSRLEEELRRRLTEp
notes: Tag tested inside a fusion protein, position M; also called ALFA^ST tag (internal)
B7: gPSRLEEELRRRLTA. (SEQ ID NO: 19) (peptide)
peptide: GPSRLEEELRRRLTA
notes: as for B1
B8: grSRLEEELRRRLTA. (SEQ ID NO: 08) (peptide)
peptide: GRSRLEEELRRRLTA
notes: as for B1
B9: gpSRLEEELRRRLTE. (SEQ ID NO: 28) (peptide)
peptide: GPSRLEEELRRRLTE
notes: as for B1
B10: psTRLEEELRRRLTAp (SEQ ID NO: 10) (peptide)
peptide: PSTRLEEELRRRLTAP
notes: Tag variant tested inside a fusion protein, position M
B11: spSRLEEELRRRLTAdp (SEQ ID NO: 16) (peptide)
peptide: SPSRLEEELRRRLTADP
notes: as for B10
B12: gPSRLEEELRRRLT. (SEQ ID NO: 18) (peptide)
peptide: GPSRLEEELRRRLT
notes: as for B1
B13: pSRLEEELRRRLTE (SEQ ID NO: 7) (peptide)
peptide: PSRLEEELRRRLTE
notes: Tag tested inside a fusion protein, position C; also called ALFA^ST tag (C-terminal)
B14: MsSRLEEELRRRLTEp (SEQ ID NO: 30) (peptide)
peptide: MSSRLEEELRRRLTEP
modifications: not fully specified (residues 2, 16); printed as MsSRLEEELRRRLTEp
notes: as for B5
B15: spSGLEQELRRRLDAp (SEQ ID NO: 23) (peptide)
peptide: SPSGLEQELRRRLDAP
notes: as for B10
B16: spSGLEEELRRRLTEp (SEQ ID NO: 17) (peptide)
peptide: SPSGLEEELRRRLTEP
notes: as for B10
B17: spSRLEEELRRRLTEp (SEQ ID NO: 15) (peptide)
peptide: SPSRLEEELRRRLTEP
notes: as for B10
B18: spSRLEEELRRRLTAp (SEQ ID NO: 11) (peptide)
peptide: SPSRLEEELRRRLTAP
notes: as for B10
B19: gPSRLEEELRRRLTAa. (SEQ ID NO: 20) (peptide)
peptide: GPSRLEEELRRRLTAA
notes: as for B1
B20: spSRLEEELRRRLTDp (SEQ ID NO: 14) (peptide)
peptide: SPSRLEEELRRRLTDP
notes: as for B10
B21: spSRLEEELRRRLEAp (SEQ ID NO: 13) (peptide)
peptide: SPSRLEEELRRRLEAP
notes: as for B10
B22: spSGLEQELRRRLEAp (SEQ ID NO: 24) (peptide)
peptide: SPSGLEQELRRRLEAP
notes: as for B10
B23: spSGLEQELRRRLTAp (SEQ ID NO: 22) (peptide)
peptide: SPSGLEQELRRRLTAP
notes: as for B10
B24: gpSRLEEELRRRLTAp. (SEQ ID NO: 26) (peptide)
peptide: GPSRLEEELRRRLTAP
notes: as for B1
B25: gpSRLEEELRRRLTEp. (SEQ ID NO: 27) (peptide)
peptide: GPSRLEEELRRRLTEP
notes: as for B1
B26: spSGLEQELRRRLTEp (SEQ ID NO: 25) (peptide)
peptide: SPSGLEQELRRRLTEP
notes: as for B10
B27: spSRLEEELRRRLDAp (SEQ ID NO: 12) (peptide)
peptide: SPSRLEEELRRRLDAP
modifications: not fully specified (residues 1, 2, 16); printed as spSRLEEELRRRLDAp
notes: as for B10
B28: pgSRLEEELRRRLTAp (SEQ ID NO: 09) (peptide)
peptide: PGSRLEEELRRRLTAP
notes: as for B10
B29: MSGLEQELRRRLTPs (SEQ ID NO: 110) (peptide)
peptide: MSGLEQELRRRLTPS
modifications: not fully specified (residue 15); printed as MSGLEQELRRRLTPs
notes: as for B5

Legend:
[1] = biological target: B2; assay: peptide elution from NbALFA^ST resin; tag position C
[2] = biological target: T1, ALFA^ST peptide …; assay: X-ray structure of the complex
[3] = biological target: maltose-binding protein (MBP) fused to multiple epitope tags (FLAG, HA, myc and ALFA^ST); assay: dot blot, 2.7 nM nanobody or primary antibody
[4] = biological target: T2, YfgM (non-tagged); assay: pull-down on ALFA Selector^ST from DDM lysate, Western blot
[5] = biological target: T3, PpiD; assay: as above
[6] = biological target: T4, ALFA^ST-FLAG-Vimentin (Mus musculus (Mouse), UniProt P20152 2-466); assay: direct immunofluorescence on PFA-fixed COS-7 cells
T4 construct: Expressed in COS-7 cells; also called ALFA^ST-Vimentin; ALFA^ST-tagged Vimentin
T4 sequence (P20152 other isoform, or with tags, fused parts or gaps): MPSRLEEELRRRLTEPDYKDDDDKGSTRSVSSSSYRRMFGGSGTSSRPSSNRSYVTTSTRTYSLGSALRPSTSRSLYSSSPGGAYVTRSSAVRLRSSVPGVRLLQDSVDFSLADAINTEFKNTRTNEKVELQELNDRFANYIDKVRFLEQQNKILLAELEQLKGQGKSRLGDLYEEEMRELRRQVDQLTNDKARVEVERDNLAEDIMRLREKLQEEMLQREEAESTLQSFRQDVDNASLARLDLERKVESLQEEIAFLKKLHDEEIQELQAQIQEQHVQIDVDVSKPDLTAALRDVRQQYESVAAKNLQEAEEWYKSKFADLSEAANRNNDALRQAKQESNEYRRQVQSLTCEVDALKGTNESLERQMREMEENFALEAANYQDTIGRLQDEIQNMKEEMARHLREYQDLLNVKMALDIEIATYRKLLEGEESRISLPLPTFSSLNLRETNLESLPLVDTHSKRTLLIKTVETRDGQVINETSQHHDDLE

[7] = biological target: T5, ALFA^PE-FLAG-Vimentin (Mus musculus (Mouse), UniProt P20152 2-466); assay: direct immunofluorescence on PFA-fixed COS-7 cells
T5 construct: Expressed in COS-7 cells; also called ALFA^PE-Vimentin; ALFA^PE-tagged Vimentin
T5 sequence (P20152 other isoform, or with tags, fused parts or gaps): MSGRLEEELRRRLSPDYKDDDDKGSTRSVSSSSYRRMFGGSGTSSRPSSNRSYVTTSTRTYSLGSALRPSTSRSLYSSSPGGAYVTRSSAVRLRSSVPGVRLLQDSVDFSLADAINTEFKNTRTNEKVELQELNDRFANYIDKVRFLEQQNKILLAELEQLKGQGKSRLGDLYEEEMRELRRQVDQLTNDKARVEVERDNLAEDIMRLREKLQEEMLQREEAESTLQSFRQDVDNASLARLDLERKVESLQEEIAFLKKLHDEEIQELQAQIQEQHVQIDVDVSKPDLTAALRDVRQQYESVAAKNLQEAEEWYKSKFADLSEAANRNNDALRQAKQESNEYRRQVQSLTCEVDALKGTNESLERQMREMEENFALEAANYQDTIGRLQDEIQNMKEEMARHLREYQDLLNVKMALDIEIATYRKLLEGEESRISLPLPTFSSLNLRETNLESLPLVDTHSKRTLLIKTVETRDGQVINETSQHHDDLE

[8] = biological target: T4, ALFA^ST-FLAG-Vimentin; assay: intrabody co-expression in COS-7 cells, fluorescence microscopy
[9] = biological target: T2, YfgM (non-tagged); assay: pull-down on ALFA Selector^PE from DDM lysate, Western blot
[10] = biological target: T3, PpiD; assay: as above
[11] = biological target: B2; assay: peptide elution from NbALFA^ST resin; tag position N
[12] = biological target: B2; assay: peptide elution from NbALFA^ST resin; tag position M

Binder | t1/2 [1] [min] | t1/2 [12] [min] | further results
B1 | > 100 | – | –
B2 | – | – | binding result [2]: binds; fold lower detection limit against all other epitope tags [3]: ~10 fold; binding result [4]: no binding; binding result [5]: no binding; binding result [6]: binds; binding result [7]: binds
B3 | – | – | binding result [8]: binds
B4 | – | – | binding result [9]: no binding; binding result [10]: no binding
B5 | – | – | t1/2 [11]: > 100 min
B6 | – | > 100 | –
B7 | > 100 | – | –
B8 | > 100 | – | –
B9 | > 100 | – | –
B10 | – | > 100 | –
B11 | – | > 100 | –
B12 | > 100 | – | –
B13 | > 100 | – | –
B14 | – | – | t1/2 [11]: > 100 min
B15 | – | > 100 | –
B16 | – | > 100 | –
B17 | – | > 100 | –
B18 | – | > 100 | –
B19 | > 100 | – | –
B20 | – | > 100 | –
B21 | – | > 100 | –
B22 | – | > 100 | –
B23 | – | > 100 | –
B24 | > 100 | – | –
B25 | > 100 | – | –
B26 | – | > 100 | –
B27 | – | > 100 | –
B28 | – | > 100 | –
B29 | – | – | t1/2 [11]: < 2 min
